For assay [1], the target named is full length PSD-95 (FL-PSD-95, 1-724) (human) (UniProt P78352). As to the kind of experiment: fluorescence polarisation; competition at pH 6.4: PSD-95 (150 nM) and fluorescent tracer, increasing NA-1; apparent.
The target is the same in assay [2]. As to the kind of experiment: fluorescence polarisation; competition at pH 7.4: PSD-95 (150 nM) and fluorescent tracer, increasing NA-1; apparent.
Assay [3] has the same target. As to the kind of experiment: fluorescence polarisation; competition at pH 8.4: PSD-95 (150 nM) and fluorescent tracer, increasing NA-1; apparent. (In fluorescence polarisation assays a small probe gives low polarisation when free and higher when bound to something large.)
Assay [4] has the same target. As to the kind of experiment: fluorescence polarisation; competition at pH 9.4: PSD-95 (150 nM) and fluorescent tracer, increasing NA-1; apparent.

In PMC8844826 one finds Ki data, which are given here for one substance.

pKi: −log10 of the molar value.

full length PSD-95 (FL-PSD-95, 1-724) (human), sequence (P78352 whole entry): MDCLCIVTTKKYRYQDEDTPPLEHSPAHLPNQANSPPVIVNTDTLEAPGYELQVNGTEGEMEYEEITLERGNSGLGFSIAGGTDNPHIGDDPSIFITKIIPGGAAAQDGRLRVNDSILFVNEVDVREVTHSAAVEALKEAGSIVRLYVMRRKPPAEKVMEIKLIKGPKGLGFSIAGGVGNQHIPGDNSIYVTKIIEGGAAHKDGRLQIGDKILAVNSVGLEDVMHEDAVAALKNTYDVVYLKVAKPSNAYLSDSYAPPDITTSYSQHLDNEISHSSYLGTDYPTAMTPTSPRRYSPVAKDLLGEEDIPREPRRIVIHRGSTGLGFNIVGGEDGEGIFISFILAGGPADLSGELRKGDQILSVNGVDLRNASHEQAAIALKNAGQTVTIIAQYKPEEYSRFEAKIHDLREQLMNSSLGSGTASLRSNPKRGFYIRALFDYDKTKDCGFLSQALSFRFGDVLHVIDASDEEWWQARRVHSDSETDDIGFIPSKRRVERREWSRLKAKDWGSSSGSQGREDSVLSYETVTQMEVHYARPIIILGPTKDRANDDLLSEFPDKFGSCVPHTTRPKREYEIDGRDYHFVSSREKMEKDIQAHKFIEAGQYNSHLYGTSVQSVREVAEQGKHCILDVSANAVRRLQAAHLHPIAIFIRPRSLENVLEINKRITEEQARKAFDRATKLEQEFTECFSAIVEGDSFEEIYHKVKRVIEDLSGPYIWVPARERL

In general, pKi refers to −log10 of the Ki, conventionally taken in molar units. For the substance “NA-1 (nerinetide): TAT peptide fused to C-terminal residues of the GluN2B NMDAR subunit”, the pKi in assay [1] was 5.14; in assay [2], 5.35; in assay [3], 5.59; in assay [4], 5.39.
